From patent US20230346897A1

Target: human amyloid Aβ40 (human) (UniProt P05067)

Substance: human plasminogen purified from the plasma of human donors (enzyme)
- amount of Aβ40 left (Tricine-SDS-PAGE, quantitative scanning; solvent control defined as 100%) after 3 h at 37 °C in rabbit cerebrospinal fluid: 74.8%
